Results published in patent US10369187B2, “Peptide regulators of JNK family kinases” (Vanderbilt University, priority 2017, dated 2019).

Key:
[1] = target: MKK7-JNK3 module (Homo sapiens, UniProt O14733+P53779); test: In vitro phosphorylation of JNK3α2 by MKK7 (reconstituted module); format: biochemical
Protocol: Next, it was tested whether T1A acts as a scaffold facilitating signaling. To this end, experiments used purified proteins, because they provide the most definitive data supporting a direct interaction. As purified ASK1 is not available, MKK4-JNK3 and MKK7-JNK3 modules were reconstituted in the absence and presence of varying concentrations of synthetic purified T1A peptide and measured JNK3 phosphorylation (FIG. 2A). […] This dependence, where signaling is increased at lower scaffold concentrations and decreased at higher, was also found for scaffolding of these modules by full-length arrestin-3^20. It is believed to be a characteristic of simple scaffolds, which act by bringing the enzyme and substrate together, as lower scaffold concentrations make the formation of complete scaffold-enzyme-substrate ternary complexes likely, whereas higher concentrations increase the probability of formation of incomplete enzyme-scaffold and substrate-scaffold binary complexes, suppressing the signaling^25,26. […]
JNK3α2^20,23, and MKK4 and MKK7^17,20 were expressed in E. coli and purified as previously described^40. The effect of arrestin-3 and MBP-T1A on the phosphorylation of JNK3α2 by MKK7 or MKK4 was analyzed by an in vitro kinase assay, as described^19,20. […] Phosphorylated JNK3α2 was visualized by rabbit anti-phospho JNK antibody (Cell Signaling) and the level of JNK phosphorylation was quantified.

[2] = target: MKK4-JNK3 module (Homo sapiens, UniProt P45985+P53779); test: In vitro phosphorylation of JNK3α2 by MKK4 (reconstituted module); format: biochemical
MKK4-JNK3 module, sequence (P45985 whole entry): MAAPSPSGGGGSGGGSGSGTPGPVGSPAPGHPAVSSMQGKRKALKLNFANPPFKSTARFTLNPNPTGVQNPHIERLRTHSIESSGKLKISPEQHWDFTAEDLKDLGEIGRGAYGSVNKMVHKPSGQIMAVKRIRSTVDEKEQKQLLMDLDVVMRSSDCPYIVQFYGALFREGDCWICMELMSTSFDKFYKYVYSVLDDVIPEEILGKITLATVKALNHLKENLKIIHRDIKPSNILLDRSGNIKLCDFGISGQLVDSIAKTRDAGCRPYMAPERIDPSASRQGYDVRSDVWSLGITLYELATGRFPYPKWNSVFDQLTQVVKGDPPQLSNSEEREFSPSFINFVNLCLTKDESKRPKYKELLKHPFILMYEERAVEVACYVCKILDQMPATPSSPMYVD
MKK4-JNK3 module, sequence (P53779 whole entry): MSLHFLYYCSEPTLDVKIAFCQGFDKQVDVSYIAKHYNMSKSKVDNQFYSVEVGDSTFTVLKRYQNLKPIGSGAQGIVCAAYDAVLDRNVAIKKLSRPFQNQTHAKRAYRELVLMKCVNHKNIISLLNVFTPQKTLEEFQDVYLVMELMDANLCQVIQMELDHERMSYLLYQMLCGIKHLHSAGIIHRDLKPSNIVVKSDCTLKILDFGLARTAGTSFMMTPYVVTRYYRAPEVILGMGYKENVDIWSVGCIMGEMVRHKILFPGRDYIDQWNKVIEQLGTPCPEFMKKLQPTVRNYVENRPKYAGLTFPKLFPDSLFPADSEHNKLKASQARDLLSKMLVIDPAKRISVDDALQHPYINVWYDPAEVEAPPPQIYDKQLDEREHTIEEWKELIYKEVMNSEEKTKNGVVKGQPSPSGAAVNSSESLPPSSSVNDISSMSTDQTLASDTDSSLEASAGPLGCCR
Protocol: Next, it was tested whether T1A acts as a scaffold facilitating signaling. To this end, experiments used purified proteins, because they provide the most definitive data supporting a direct interaction. As purified ASK1 is not available, MKK4-JNK3 and MKK7-JNK3 modules were reconstituted in the absence and presence of varying concentrations of synthetic purified T1A peptide and measured JNK3 phosphorylation (FIG. 2A). […] This dependence, where signaling is increased at lower scaffold concentrations and decreased at higher, was also found for scaffolding of these modules by full-length arrestin-3^20. It is believed to be a characteristic of simple scaffolds, which act by bringing the enzyme and substrate together, as lower scaffold concentrations make the formation of complete scaffold-enzyme-substrate ternary complexes likely, whereas higher concentrations increase the probability of formation of incomplete enzyme-scaffold and substrate-scaffold binary complexes, suppressing the signaling^25,26. The optimal concentration of a scaffolding protein for signaling depends on its affinity for the proteins it scaffolds^20,25,26.
JNK3α2^20,23, and MKK4 and MKK7^17,20 were expressed in E. coli and purified as previously described^40. The effect of arrestin-3 and MBP-T1A on the phosphorylation of JNK3α2 by MKK7 or MKK4 was analyzed by an in vitro kinase assay, as described^19,20. Briefly, the assays were conducted in 10 μL containing the following final concentrations: 50 nM active MKK7 or MKK4, 1 μM JNK3α2, and indicated concentrations of arrestin-3 or T1A. The mixtures were incubated individually at 30° C. for 10 sec. The reactions were stopped by the addition of 15 μL of Laemmli SDS sample buffer (Sigma) and 2 μl of total reaction sample was subjected to SDS-PAGE (8%) and transferred polyvinylidene difluoride (PVDF) membranes (Millipore, Bedford, Mass.). Phosphorylated JNK3α2 was visualized by rabbit anti-phospho JNK antibody (Cell Signaling) and the level of JNK phosphorylation was quantified.

MKK7-JNK3 module, sequence (O14733 whole entry): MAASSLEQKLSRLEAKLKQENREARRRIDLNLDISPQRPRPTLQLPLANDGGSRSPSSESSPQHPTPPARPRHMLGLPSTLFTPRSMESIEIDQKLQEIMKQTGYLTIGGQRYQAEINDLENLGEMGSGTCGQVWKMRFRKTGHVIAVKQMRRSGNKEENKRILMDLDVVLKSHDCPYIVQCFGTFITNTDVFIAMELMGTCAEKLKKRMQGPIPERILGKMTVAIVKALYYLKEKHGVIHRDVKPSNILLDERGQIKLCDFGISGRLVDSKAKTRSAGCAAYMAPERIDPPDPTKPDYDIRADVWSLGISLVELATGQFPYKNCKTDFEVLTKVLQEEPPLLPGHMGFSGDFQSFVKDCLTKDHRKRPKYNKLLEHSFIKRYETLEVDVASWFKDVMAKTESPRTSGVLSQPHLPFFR
MKK7-JNK3 module, sequence (P53779 whole entry): as the sequence (P53779 whole entry) above

- optimal concentration relative to full-length arrestin-3, MKK7-JNK3 module [1]: ~10 times lower
- JNK3 phosphorylation level by MKK7 as a function of T1A concentration ([1]; 50 nM MKK7, 1 μM JNK3α2, 10 sec, 30° C., synthetic purified peptide): bell-shaped curves
- optimal concentration for promoting JNK3 phosphorylation by MKK4 compared with MKK7-JNK3 module [2]: lower than for MKK7-JNK3 module
- optimal concentration relative to full-length arrestin-3, MKK4-JNK3 module [2]: ~10 times lower
- JNK3 phosphorylation level by MKK4 as a function of T1A concentration ([2]; 50 nM MKK4, 1 μM JNK3α2, 10 sec, 30° C., synthetic purified peptide): bell-shaped curves
Sequence: MGEKPGTRVFKKSSPNCKLTVYLGK (bovine) [T1A, first 25 residues of arrestin-3]
